# Experimental data as given in PMC6778522.
# Target: PRC2 catalytic core (EZH2-EED-SUZ12 VEFS) (UniProt Q15910;O75530;Q15022 1-746;1-441;545-726)
# Assay: competition
# PRC2 catalytic core (EZH2-EED-SUZ12 VEFS), sequence (Q15910 whole entry, chain 1 of 3): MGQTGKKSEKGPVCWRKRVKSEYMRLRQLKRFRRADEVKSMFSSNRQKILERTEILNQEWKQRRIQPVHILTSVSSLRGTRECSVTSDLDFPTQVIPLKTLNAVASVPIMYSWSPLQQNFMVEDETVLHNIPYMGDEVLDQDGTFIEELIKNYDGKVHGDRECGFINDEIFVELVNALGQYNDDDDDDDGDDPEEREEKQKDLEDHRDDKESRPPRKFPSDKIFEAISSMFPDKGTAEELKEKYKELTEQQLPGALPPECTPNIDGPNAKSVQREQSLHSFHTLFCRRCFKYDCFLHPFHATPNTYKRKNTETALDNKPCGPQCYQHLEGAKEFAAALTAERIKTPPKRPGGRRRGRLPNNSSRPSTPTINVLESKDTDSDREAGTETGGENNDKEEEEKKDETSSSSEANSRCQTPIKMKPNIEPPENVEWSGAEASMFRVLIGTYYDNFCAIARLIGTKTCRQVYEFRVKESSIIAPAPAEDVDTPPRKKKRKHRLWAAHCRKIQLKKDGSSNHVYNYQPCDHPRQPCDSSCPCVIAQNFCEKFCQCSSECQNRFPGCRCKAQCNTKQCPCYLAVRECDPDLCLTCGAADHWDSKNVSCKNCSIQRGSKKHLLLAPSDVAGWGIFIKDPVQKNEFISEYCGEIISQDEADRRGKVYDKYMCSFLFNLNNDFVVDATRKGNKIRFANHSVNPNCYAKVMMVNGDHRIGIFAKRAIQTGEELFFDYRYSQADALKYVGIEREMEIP
# PRC2 catalytic core (EZH2-EED-SUZ12 VEFS), sequence (O75530 whole entry, chain 2 of 3): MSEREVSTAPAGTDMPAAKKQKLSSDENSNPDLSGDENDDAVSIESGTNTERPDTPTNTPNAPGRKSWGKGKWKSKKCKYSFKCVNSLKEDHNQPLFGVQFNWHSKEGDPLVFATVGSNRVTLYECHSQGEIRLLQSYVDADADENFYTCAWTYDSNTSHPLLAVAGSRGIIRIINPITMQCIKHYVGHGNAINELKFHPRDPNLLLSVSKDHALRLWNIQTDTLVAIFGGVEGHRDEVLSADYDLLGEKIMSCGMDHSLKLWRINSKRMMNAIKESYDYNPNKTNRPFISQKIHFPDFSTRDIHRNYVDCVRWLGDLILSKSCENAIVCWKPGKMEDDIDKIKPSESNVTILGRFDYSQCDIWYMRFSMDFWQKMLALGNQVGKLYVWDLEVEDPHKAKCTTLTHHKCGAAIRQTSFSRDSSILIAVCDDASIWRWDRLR
# PRC2 catalytic core (EZH2-EED-SUZ12 VEFS), sequence (Q15022 545-726, chain 3 of 3): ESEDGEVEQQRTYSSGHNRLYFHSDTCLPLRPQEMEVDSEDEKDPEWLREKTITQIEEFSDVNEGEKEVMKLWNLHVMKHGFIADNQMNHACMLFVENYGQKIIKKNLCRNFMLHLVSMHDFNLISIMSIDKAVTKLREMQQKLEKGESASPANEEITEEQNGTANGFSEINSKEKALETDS
binder,measurement,value
CGGGGGUGGGGGGUGGGGGUGGGU (structured_RNA) [PIM1 G4 RNA competitor],binding result,binds
